What all share (test): IEDB peptide-MHC binding, purified MHC/competitive/radioactivity; filed as Kd, often an IC50 or EC50 that approximates it; ≥ and ≤ were set here for values at or beyond the usual limits of such assays
Test [1] deals with HLA-A*02:02.
The target in test [2] is HLA-A*02:03.
For test [3], the target named is HLA-A*02:06.
Test [4] addresses HLA-A*03:01.
Test [5] addresses HLA-A*11:01.
The target of test [6] is HLA-A*31:01.
Test [7] has as its target HLA-A*33:01.
Test [8] deals with HLA-A*68:01.
[9] abbreviates: source organism: Vaccinia virus WR.
[10] abbreviates: source organism: Mammarenavirus lassaense.
Where [11] appears, read: source organism: Dengue virus 1 Brazil/97-11/1997.
The mark [12] stands for this setting: source organism: SARS coronavirus Tor2.
The mark [13] stands for this setting: source organism: Dengue virus 3 Martinique/1243/1999.

Data on 34 sequences can be found in the Immune Epitope Database (IEDB).

Some results are limits rather than exact numbers.

On to TLVPVLEKKV, for which the Kd (commonly the concentration at which binding is half-saturated) was determined as 112 nM in test [1] (setting [9]), 100 nM in test [2] (setting [9]) and 498 nM in test [3] (setting [9]).

As for AAAATCALV, the values for the Kd in test [1] (setting [9]), in test [2] (setting [9]) and in test [3] (setting [9]) were 14.6 nM, 9.05 nM and 12.5 nM, respectively.

Take ELPYVGDTSM: the Kd in test [1] (setting [9]) is 4130 nM; in test [2] (setting [9]), 14200 nM; in test [3] (setting [9]), at least 29900 nM.

Regarding LLMEGLKLLS, the values for the Kd in test [1] (setting [10]), in test [2] (setting [10]) and in test [3] (setting [10]) were 78.3 nM, 39.5 nM and 1750 nM, respectively.

Turning to VATFRDMLL, the Kd in test [1] (setting [9]) worked out at 2530 nM; in test [2] (setting [9]) it was 9940 nM; in test [3] (setting [9]), 7720 nM.

Take TLATGPLTTL: in test [2] (setting [11]), the Kd was 9.26 nM.

Take DISSFYWSL: the Kd worked out at 391 nM in test [1] (setting [9]), 6870 nM in test [2] (setting [9]) and 3970 nM in test [3] (setting [9]).

Regarding QLSNNKYVL, the Kd in test [1] (setting [9]) amounted to 78.5 nM; in test [2] (setting [9]), 4940 nM; in test [3] (setting [9]), 10700 nM.

For MMNITRLEVI, the values for the Kd in test [1] (setting [9]), in test [2] (setting [9]) and in test [3] (setting [9]) were 85.4 nM, 26.1 nM and 134 nM, respectively.

Regarding TAEQLSKYV, the Kd is 5220 nM in test [1] (setting [9]), 8900 nM in test [2] (setting [9]) and at least 23900 nM in test [3] (setting [9]).

Take GTSAAAYFV: the results for the equilibrium dissociation constant (Kd) in test [1] (setting [12]), in test [2] (setting [12]) and in test [3] (setting [12]) were 35.2 nM, 202 nM and 90.5 nM, respectively.

Consider ILLILSCIFA, for which the Kd in test [1] (setting [9]) was determined as 448 nM; in test [2] (setting [9]) it was 307 nM; in test [3] (setting [9]) it was 492 nM.

LLALNDMGKV: the dissociation constant (Kd) in test [2] (setting [13]) turned out to be 15 nM.

For RLYDYFTRVT, the dissociation constant (Kd) in test [1] (setting [9]) amounted to 2450 nM; in test [2] (setting [9]), 551 nM; in test [3] (setting [9]), 691 nM.

Take VVKDKIKLPT: the Kd is at least 37300 nM in test [1] (setting [9]), 8600 nM in test [2] (setting [9]) and at least 29200 nM in test [3] (setting [9]).

In the case of FVYVSVMNFI, the Kd is 76.5 nM in test [1] (setting [9]), 17.8 nM in test [2] (setting [9]) and 7.5 nM in test [3] (setting [9]).

Take FLMSFTILCL: the Kd in test [1] (setting [12]) turned out to be 0.821 nM; in test [2] (setting [12]), 213 nM; in test [3] (setting [12]), 74.4 nM.

Regarding IMFMLIFNV, the figures for the Kd in test [1] (setting [9]), in test [2] (setting [9]) and in test [3] (setting [9]) were 0.146 nM, 10.2 nM and 13.1 nM, respectively.

Regarding LTHGADPNA, the results for the Kd in test [1] (setting [9]), in test [2] (setting [9]) and in test [3] (setting [9]) were 19400 nM, 10500 nM and at least 29400 nM, respectively.

Take KVIKLVKSLV: the Kd in test [1] (setting [9]) was 14300 nM; in test [2] (setting [9]) it was 13400 nM; in test [3] (setting [9]) it was 2140 nM.

With YVEHDPRLVA, the Kd is 18600 nM in test [1] (setting [9]), 16200 nM in test [2] (setting [9]) and 11900 nM in test [3] (setting [9]).

For the sequence IMAFILGIII, the Kd was determined as 632 nM in test [1] (setting [9]), 3160 nM in test [2] (setting [9]) and 3190 nM in test [3] (setting [9]).

For the sequence YVMCTGSFKL, the Kd in test [3] (setting [11]) was 18.8 nM.

With YIWKSYVHI, the Kd in test [1] (setting [12]) is 86.4 nM; in test [2] (setting [12]) it was 12.9 nM; in test [3] (setting [12]), 8.89 nM.

As to KLREVYTQL, the Kd in test [2] (setting [13]) was 39.1 nM.

Regarding HIKVDHPDK, the Kd in test [4] (setting [9]) amounted to 5150 nM; in test [5] (setting [9]) it was 5680 nM; in test [6] (setting [9]), 158 nM; in test [7] (setting [9]) it was 298 nM; in test [8] (setting [9]), 1960 nM.

Regarding YIIRRSGCR, the Kd in test [4] (setting [9]) came out at 10500 nM; in test [5] (setting [9]), 566 nM; in test [6] (setting [9]) it was 29.3 nM; in test [7] (setting [9]), 192 nM; in test [8] (setting [9]), 64.1 nM.

As to GLSLQDYCY, the Kd in test [4] (setting [9]) was 3100 nM; in test [5] (setting [9]), 361 nM; in test [6] (setting [9]) it was at least 37800 nM; in test [7] (setting [9]), 8680 nM; in test [8] (setting [9]), at least 29500 nM.

FAVGLLFRRL: the Kd in test [3] (setting [11]) was 20.4 nM.

Turning to YVVTTDISEM, in test [3] (setting [11]), the Kd was 1160 nM.

Turning to YTLFQQTGR, the Kd came out at 3100 nM in test [4] (setting [9]); 551 nM in test [5] (setting [9]); 50 nM in test [6] (setting [9]); 24.1 nM in test [7] (setting [9]); 0.384 nM in test [8] (setting [9]).

As for QTMLFTMLR, the Kd was determined as 43.5 nM in test [4] (setting [12]); 1.81 nM in test [5] (setting [12]); 0.162 nM in test [6] (setting [12]); 1.24 nM in test [7] (setting [12]); 2.61 nM in test [8] (setting [12]).

As for VLGLGLSLK, the Kd in test [4] (setting [9]) was 6.73 nM; in test [5] (setting [9]), 25.7 nM; in test [6] (setting [9]), 1570 nM; in test [7] (setting [9]), at least 26800 nM; in test [8] (setting [9]), 9650 nM.

For VTSLAIKNY, the Kd was at least 25100 nM in test [4] (setting [9]); 322 nM in test [5] (setting [9]); at least 34800 nM in test [6] (setting [9]); at least 77700 nM in test [7] (setting [9]); 12500 nM in test [8] (setting [9]).
